The target of this assay is erbB2 (p185erbB2/HER2/neu) on SK-BR-3 cells (human) (UniProt P04626). In words: cell-based or functional assay.

anti-erbB2 mAb 4D5 (antibody) yielded a foci less than 20 pixels in soft agar (SK-BR-3) of 72%.

Source of the values: patent US20180057603A1.
